In PMC9482650, “Quantitative fragmentomics allow affinity mapping of interactomes” (Nature Communications, 2022):

T1: APBA1_1, Q02410
T1 sequence (Q02410 651-752, limits assumed, looked up): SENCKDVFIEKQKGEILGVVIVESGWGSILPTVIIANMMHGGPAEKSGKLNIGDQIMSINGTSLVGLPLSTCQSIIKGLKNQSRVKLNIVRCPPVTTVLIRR

T2: APBA1_2, Q02410
T2 sequence (Q02410 742-832, limits assumed, looked up): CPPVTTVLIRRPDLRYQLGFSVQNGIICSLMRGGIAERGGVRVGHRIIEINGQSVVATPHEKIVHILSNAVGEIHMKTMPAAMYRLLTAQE

T3: GRIP1_2, Q9Y3R0
T3 sequence (Q9Y3R0 145-248, limits assumed, looked up): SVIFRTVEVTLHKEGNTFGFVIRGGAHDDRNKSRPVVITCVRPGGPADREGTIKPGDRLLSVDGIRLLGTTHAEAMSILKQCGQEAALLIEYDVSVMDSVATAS

T4: GRIP1_3, Q9Y3R0
T4 sequence (Q9Y3R0 247-346, limits assumed, looked up): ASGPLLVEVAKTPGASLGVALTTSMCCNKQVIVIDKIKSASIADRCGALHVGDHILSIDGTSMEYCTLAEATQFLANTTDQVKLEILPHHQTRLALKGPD

T5: GRIP1_4, Q9Y3R0
T5 sequence (Q9Y3R0 467-571, limits assumed, looked up): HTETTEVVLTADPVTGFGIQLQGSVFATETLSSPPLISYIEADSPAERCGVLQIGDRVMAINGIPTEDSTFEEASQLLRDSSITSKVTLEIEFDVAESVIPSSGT

T6: HTRA4, P83105
T6 sequence (P83105 378-476, limits assumed, looked up): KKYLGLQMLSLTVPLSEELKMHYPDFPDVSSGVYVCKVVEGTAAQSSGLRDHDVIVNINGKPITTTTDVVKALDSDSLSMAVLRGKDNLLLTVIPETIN

T7: LIN7A, O14910
T7 sequence (O14910 103-200, limits assumed, looked up): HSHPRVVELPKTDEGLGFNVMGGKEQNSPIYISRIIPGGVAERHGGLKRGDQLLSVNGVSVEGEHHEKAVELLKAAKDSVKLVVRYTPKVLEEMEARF

T8: LRRC7, Q96NW7
T8 sequence (Q96NW7 1440-1537, limits assumed, looked up): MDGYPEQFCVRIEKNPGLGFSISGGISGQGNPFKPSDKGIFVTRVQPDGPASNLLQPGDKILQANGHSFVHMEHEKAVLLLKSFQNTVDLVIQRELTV

T9: PARD3B_1, Q8TEW8
T9 sequence (Q8TEW8 196-299, limits assumed, looked up): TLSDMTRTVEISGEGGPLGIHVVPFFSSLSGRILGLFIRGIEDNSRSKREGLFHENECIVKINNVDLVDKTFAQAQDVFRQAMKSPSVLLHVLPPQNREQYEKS

T10: PCLO, Q9Y6V0
T10 sequence (Q9Y6V0 4491-4600, limits assumed, looked up): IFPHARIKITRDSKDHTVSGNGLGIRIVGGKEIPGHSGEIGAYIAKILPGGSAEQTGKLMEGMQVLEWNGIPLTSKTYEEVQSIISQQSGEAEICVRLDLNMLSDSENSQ

T11: TIAM2, Q8IVF5
T11 sequence (Q8IVF5 885-986, limits assumed, looked up): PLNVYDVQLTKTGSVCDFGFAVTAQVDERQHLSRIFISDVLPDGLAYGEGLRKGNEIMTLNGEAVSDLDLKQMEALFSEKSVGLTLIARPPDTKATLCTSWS

B1: FAM110B, Q8TC76 (peptide)
chain: ARESQKVSHV
B2: SCN5A, Q14524 (peptide)
chain: SPDRDRESIV

Biological target: T1, APBA1_1, Q02410
Experiment: holdup assay
Design: key: below the threshold = too weak to quantify, mostly under pKd 3.1 to 4
Conditions: plain residues with an end cap or a label only (N-terminal biotin on a linker: ado-ado)

Binder | pKd
B1 | below the threshold
B2 | below the threshold

Biological target: T2, APBA1_2, Q02410
Experiment: holdup assay
Design: key: below the threshold = too weak to quantify, mostly under pKd 3.1 to 4
Conditions: plain residues with an end cap or a label only (N-terminal biotin on a linker: ado-ado)

Binder | pKd
B1 | 4.41
B2 | 3.55

Biological target: ARHGEF12, Q9NZN5-2
Sequence (Q9NZN5 other isoform, or with tags, fused parts or gaps): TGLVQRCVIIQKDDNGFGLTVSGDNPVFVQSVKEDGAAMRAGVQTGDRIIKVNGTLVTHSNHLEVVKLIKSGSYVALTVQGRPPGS
Experiment: holdup assay
Design: key: below the threshold = too weak to quantify, mostly under pKd 3.1 to 4
Conditions: plain residues with an end cap or a label only (N-terminal biotin on a linker: ado-ado)

Binder | pKd
B1 | 4.58
B2 | below the threshold

Biological target: DLG2_2, Q15700
Sequence (Q15700 189-283): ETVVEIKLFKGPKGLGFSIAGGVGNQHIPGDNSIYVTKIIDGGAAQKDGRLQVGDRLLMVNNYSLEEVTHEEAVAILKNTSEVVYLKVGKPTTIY
Experiment: holdup assay
Design: key: below the threshold = too weak to quantify, mostly under pKd 3.1 to 4
Conditions: plain residues with an end cap or a label only (N-terminal biotin on a linker: ado-ado)

Binder | pKd
B1 | 4.24
B2 | 4.58

Biological target: DLG5_1, Q8TDM6
Sequence (Q8TDM6 617-713): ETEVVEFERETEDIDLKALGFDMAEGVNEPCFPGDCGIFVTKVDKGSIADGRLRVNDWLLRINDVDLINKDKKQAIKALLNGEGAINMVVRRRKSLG
Experiment: holdup assay
Design: key: below the threshold = too weak to quantify, mostly under pKd 3.1 to 4
Conditions: plain residues with an end cap or a label only (N-terminal biotin on a linker: ado-ado)

Binder | pKd
B1 | below the threshold
B2 | below the threshold

Biological target: FRMPD2_2, Q68DX3
Sequence (Q68DX3 944-1038): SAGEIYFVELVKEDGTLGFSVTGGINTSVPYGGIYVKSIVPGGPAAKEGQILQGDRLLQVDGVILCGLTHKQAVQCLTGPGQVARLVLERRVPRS
Experiment: holdup assay
Design: key: below the threshold = too weak to quantify, mostly under pKd 3.1 to 4
Conditions: plain residues with an end cap or a label only (N-terminal biotin on a linker: ado-ado)

Binder | pKd
B1 | 4.31
B2 | 3.76

Biological target: GOPC, Q9HD26
Experiment: holdup assay
Design: key: below the threshold = too weak to quantify, mostly under pKd 3.1 to 4
Conditions: plain residues with an end cap or a label only (N-terminal biotin on a linker: ado-ado)

Binder | pKd
B1 | 3.98
B2 | 3.7

Biological target: T3, GRIP1_2, Q9Y3R0
Experiment: holdup assay
Design: key: below the threshold = too weak to quantify, mostly under pKd 3.1 to 4
Conditions: plain residues with an end cap or a label only (N-terminal biotin on a linker: ado-ado)

Binder | pKd
B1 | below the threshold
B2 | below the threshold

Biological target: T4, GRIP1_3, Q9Y3R0
Experiment: holdup assay
Design: key: below the threshold = too weak to quantify, mostly under pKd 3.1 to 4
Conditions: plain residues with an end cap or a label only (N-terminal biotin on a linker: ado-ado)

Binder | pKd
B1 | below the threshold
B2 | below the threshold

Biological target: T5, GRIP1_4, Q9Y3R0
Experiment: holdup assay
Design: key: below the threshold = too weak to quantify, mostly under pKd 3.1 to 4
Conditions: plain residues with an end cap or a label only (N-terminal biotin on a linker: ado-ado)

Binder | pKd
B1 | below the threshold
B2 | below the threshold

Biological target: GRIP2_3, Q9C0E4
Sequence (Q9C0E4 238-339): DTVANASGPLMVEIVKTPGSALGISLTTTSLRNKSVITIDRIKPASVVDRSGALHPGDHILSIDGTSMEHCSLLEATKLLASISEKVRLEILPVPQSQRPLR
Experiment: holdup assay
Design: key: below the threshold = too weak to quantify, mostly under pKd 3.1 to 4
Conditions: plain residues with an end cap or a label only (N-terminal biotin on a linker: ado-ado)

Binder | pKd
B1 | below the threshold
B2 | below the threshold

Biological target: T6, HTRA4, P83105
Experiment: holdup assay
Design: key: below the threshold = too weak to quantify, mostly under pKd 3.1 to 4
Conditions: plain residues with an end cap or a label only (N-terminal biotin on a linker: ado-ado)

Binder | pKd
B1 | 4.1
B2 | 3.9

Biological target: Inadl_2, Q8NI35
Sequence (Q8NI35 238-335): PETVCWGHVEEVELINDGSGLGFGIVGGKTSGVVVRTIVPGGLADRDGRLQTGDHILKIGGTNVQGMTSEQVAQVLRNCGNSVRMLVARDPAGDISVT
Experiment: holdup assay
Design: key: below the threshold = too weak to quantify, mostly under pKd 3.1 to 4
Conditions: plain residues with an end cap or a label only (N-terminal biotin on a linker: ado-ado)

Binder | pKd
B1 | below the threshold
B2 | below the threshold

Biological target: Inadl_8, Q8NI35
Sequence (Q8NI35 1425-1530): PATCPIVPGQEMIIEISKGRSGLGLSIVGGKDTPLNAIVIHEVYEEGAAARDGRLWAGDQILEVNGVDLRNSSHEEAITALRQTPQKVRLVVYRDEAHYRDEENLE
Experiment: holdup assay
Design: key: below the threshold = too weak to quantify, mostly under pKd 3.1 to 4
Conditions: plain residues with an end cap or a label only (N-terminal biotin on a linker: ado-ado)

Binder | pKd
B1 | 4.8
B2 | 3.85

Biological target: Inadl_9, Q8NI35
Sequence (Q8NI35 1530-1615): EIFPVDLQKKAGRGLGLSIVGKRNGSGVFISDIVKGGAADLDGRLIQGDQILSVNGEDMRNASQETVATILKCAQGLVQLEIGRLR
Experiment: holdup assay
Design: key: below the threshold = too weak to quantify, mostly under pKd 3.1 to 4
Conditions: plain residues with an end cap or a label only (N-terminal biotin on a linker: ado-ado)

Binder | pKd
B1 | 3.9
B2 | 3.54

Biological target: T7, LIN7A, O14910
Experiment: holdup assay
Design: key: below the threshold = too weak to quantify, mostly under pKd 3.1 to 4
Conditions: plain residues with an end cap or a label only (N-terminal biotin on a linker: ado-ado)

Binder | pKd
B1 | below the threshold
B2 | below the threshold

Biological target: T8, LRRC7, Q96NW7
Experiment: holdup assay
Design: key: below the threshold = too weak to quantify, mostly under pKd 3.1 to 4
Conditions: plain residues with an end cap or a label only (N-terminal biotin on a linker: ado-ado)

Binder | pKd
B1 | below the threshold
B2 | 3.48

Biological target: MAGI2_2, Q86UL8
Sequence (Q86UL8 410-522): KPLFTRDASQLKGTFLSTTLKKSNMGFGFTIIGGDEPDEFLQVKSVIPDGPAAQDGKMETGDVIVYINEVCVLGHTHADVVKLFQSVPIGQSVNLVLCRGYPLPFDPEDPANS
Experiment: holdup assay
Design: key: below the threshold = too weak to quantify, mostly under pKd 3.1 to 4
Conditions: plain residues with an end cap or a label only (N-terminal biotin on a linker: ado-ado)

Binder | pKd
B1 | 4.87
B2 | 4.26

Biological target: NHERF2_2, Q15599
Sequence (Q15599 142-238): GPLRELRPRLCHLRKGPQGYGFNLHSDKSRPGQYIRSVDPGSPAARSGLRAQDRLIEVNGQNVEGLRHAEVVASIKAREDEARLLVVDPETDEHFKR
Experiment: holdup assay
Design: key: below the threshold = too weak to quantify, mostly under pKd 3.1 to 4
Conditions: plain residues with an end cap or a label only (N-terminal biotin on a linker: ado-ado)

Binder | pKd
B1 | below the threshold
B2 | below the threshold

Biological target: NOS1, P29475
Sequence (P29475 9-101): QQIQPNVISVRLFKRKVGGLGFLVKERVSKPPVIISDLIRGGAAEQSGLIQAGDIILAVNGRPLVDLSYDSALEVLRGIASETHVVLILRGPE
Experiment: holdup assay
Design: key: below the threshold = too weak to quantify, mostly under pKd 3.1 to 4
Conditions: plain residues with an end cap or a label only (N-terminal biotin on a linker: ado-ado)

Binder | pKd
B1 | 3.55
B2 | 3.7

Biological target: T9, PARD3B_1, Q8TEW8
Experiment: holdup assay
Design: key: below the threshold = too weak to quantify, mostly under pKd 3.1 to 4
Conditions: plain residues with an end cap or a label only (N-terminal biotin on a linker: ado-ado)

Binder | pKd
B1 | below the threshold
B2 | below the threshold

Biological target: PARD3_3, Q8TEW0
Sequence (Q8TEW0 582-685): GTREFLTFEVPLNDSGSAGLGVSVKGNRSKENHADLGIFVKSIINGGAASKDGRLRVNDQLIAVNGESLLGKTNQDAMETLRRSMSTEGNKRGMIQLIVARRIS
Experiment: holdup assay
Design: key: below the threshold = too weak to quantify, mostly under pKd 3.1 to 4
Conditions: plain residues with an end cap or a label only (N-terminal biotin on a linker: ado-ado)

Binder | pKd
B1 | below the threshold
B2 | 3.86

Biological target: T10, PCLO, Q9Y6V0
Experiment: holdup assay
Design: key: below the threshold = too weak to quantify, mostly under pKd 3.1 to 4
Conditions: plain residues with an end cap or a label only (N-terminal biotin on a linker: ado-ado)

Binder | pKd
B1 | below the threshold
B2 | below the threshold

Biological target: PDZRN4_1, Q6ZMN7
Sequence (Q6ZMN7 213-318): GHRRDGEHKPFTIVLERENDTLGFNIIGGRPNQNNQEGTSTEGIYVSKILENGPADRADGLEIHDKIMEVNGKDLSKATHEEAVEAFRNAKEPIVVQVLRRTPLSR
Experiment: holdup assay
Design: key: below the threshold = too weak to quantify, mostly under pKd 3.1 to 4
Conditions: plain residues with an end cap or a label only (N-terminal biotin on a linker: ado-ado)

Binder | pKd
B1 | below the threshold
B2 | 3.95

Biological target: PICK1, Q9NRD5
Sequence (Q9NRD5 17-115): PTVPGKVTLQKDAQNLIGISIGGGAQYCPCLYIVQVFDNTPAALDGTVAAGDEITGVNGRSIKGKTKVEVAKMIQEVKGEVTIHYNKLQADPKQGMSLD
Experiment: holdup assay
Design: key: below the threshold = too weak to quantify, mostly under pKd 3.1 to 4
Conditions: plain residues with an end cap or a label only (N-terminal biotin on a linker: ado-ado)

Binder | pKd
B1 | below the threshold
B2 | 4.21

Biological target: T11, TIAM2, Q8IVF5
Experiment: holdup assay
Design: key: below the threshold = too weak to quantify, mostly under pKd 3.1 to 4
Conditions: plain residues with an end cap or a label only (N-terminal biotin on a linker: ado-ado)

Binder | pKd
B1 | below the threshold
B2 | below the threshold
